Target: the molecule itself
Assay: crystal structure; HsFN3KΔ crystals, hanging drop vapor diffusion at 20 °C (0.5 M ammonium sulfate, 0.1 M tri-sodium citrate, 1 M lithium sulfate); space group P212121, two molecules in the asymmetric unit; apo and soaked with nucleotides and DMF

B1: HsFN3KΔ (human fructosamine-3-kinase with an internal loop truncation: amino acid 117–138 replaced with a GSS linker) (enzyme)
chain: MEQLLRAELRTATLRAFGGPGAGCISEGRAYDTDAGPVFVKVNRRTQARQMFEGEVASLEALRSTGLVRVPRPMKVIDLPGGGAAFVMEHLKMKSLSSQASKLGEQMADLHLYNQKGSSYVDKFGFHTVTCCGFIPQVNEWQDDWPTFFARHRLQAQLDLIEKDYADREARELWSRLQVKIPDLFCGLEIVPALLHGDLWSGNVAEDDVGPIIYDPASFYGHSEFELAIALMFGGFPRSFFTAYHRKIPKAPGFDQRLLLYQLFNYLNHWNHFGREYRSPSLGTMRRLLK
notes: human fructosamine-3-kinase (FN3K), Gene ID 64122, residues before the truncated loop (up to residue 116); linker that replaces amino acids 117–138; human fructosamine-3-kinase (FN3K), Gene ID 64122, residues after the truncated loop (from residue 139); Construct used for all crystal structures; also called apo-HsFN3K; apo-HsFN3KΔ; source: E. coli Rosetta 2 (DE3), purified (Ni-NTA, SP-HP cation …)
Q: Which “stoichiometry N” value does the source give for B1 here?
A: 2
